{"source": "patent US8889615B2", "about": "“Methods for promoting epithelialization and healing of chronic wounds” (New York University, priority 2009, dated 2014)", "molecules": {"B1": {"name": "EGF: epidermal growth factor, promotes keratinocyte migration (protein, UniProt P01133 23-1207, looked up)", "Pro-epidermal growth factor": "PQHWSCPEGTLAGNGNSTCVGPAPFLIFSHGNSIFRIDTEGTNYEQLVVDAGVSVIMDFHYNEKRIYWVDLERQLLQRVFLNGSRQERVCNIEKNVSGMAINWINEEVIWSNQQEGIITVTDMKGNNSHILLSALKYPANVAVDPVERFIFWSSEVAGSLYRADLDGVGVKALLETSEKITAVSLDVLDKRLFWIQYNREGSNSLICSCDYDGGSVHISKHPTQHNLFAMSLFGDRIFYSTWKMKTIWIANKHTGKDMVRINLHSSFVPLGELKVVHPLAQPKAEDDTWEPEQKLCKLRKGNCSSTVCGQDLQSHLCMCAEGYALSRDRKYCEDVNECAFWNHGCTLGCKNTPGSYYCTCPVGFVLLPDGKRCHQLVSCPRNVSECSHDCVLTSEGPLCFCPEGSVLERDGKTCSGCSSPDNGGCSQLCVPLSPVSWECDCFPGYDLQLDEKSCAASGPQPFLLFANSQDIRHMHFDGTDYGTLLSQQMGMVYALDHDPVENKIYFAHTALKWIERANMDGSQRERLIEEGVDVPEGLAVDWIGRRFYWTDRGKSLIGRSDLNGKRSKIITKENISQPRGIAVHPMAKRLFWTDTGINPRIESSSLQGLGRLVIASSDLIWPSGITIDFLTDKLYWCDAKQSVIEMANLDGSKRRRLTQNDVGHPFAVAVFEDYVWFSDWAMPSVMRVNKRTGKDRVRLQGSMLKPSSLVVVHPLAKPGADPCLYQNGGCEHICKKRLGTAWCSCREGFMKASDGKTCLALDGHQLLAGGEVDLKNQVTPLDILSKTRVSEDNITESQHMLVAEIMVSDQDDCAPVGCSMYARCISEGEDATCQCLKGFAGDGKLCSDIDECEMGVPVCPPASSKCINTEGGYVCRCSEGYQGDGIHCLDIDECQLGEHSCGENASCTNTEGGYTCMCAGRLSEPGLICPDSTPPPHLREDDHHYSVRNSDSECPLSHDGYCLHDGVCMYIEALDKYACNCVVGYIGERCQYRDLKWWELRHAGHGQQQKVIVVAVCVVVLVMLLLLSLWGAHYYRTQKLLSKNPKNPYEESSRDVRSRRPADTEDGMSSCPQPWFVVIKEHQDLKNGGQPVAGEDGQAADGSMQPTSWRQEPQLCGMGTEQGCWIPVSSDKGSCPQVMERSFHMPSYGTQTLEGGVEKPHSLLSANPLWQQRALDPPHQMELTQ", "modifications": "Pro-epidermal growth factor", "notes": "epidermal growth factor, promotes keratinocyte migration"}}, "test_system": "Primary human keratinocytes", "test": "Keratinocyte migration, wound scratch assay", "format": "cell-based", "settings": "20 μmol/L LiCl or 25 ng/ml of EGF, 24 and 48 hours", "procedure": "Primary human keratinocytes were grown to 80% confluency. Twenty-four hours before the experiment cells were transferred to basal KBM medium (Life Technologies, Inc., Grand Island, N.Y.). Before the scratch, cells were treated with 8 μg/ml mitomycin C (ICN, Irvine, Calif.) for 1 hour and washed with basal media. Scratches were performed as previously described (Lee, et al., J Mol. Biol., 345:1083-1097 (2005)). Cells were incubated with 20 μmol/L LiCl or 25 ng/ml of EGF for 24 and 48 hours, rephotographed, and cell migration was quantified as previously described (Lee, et al., J. Mol. Biol., 345:1083-1097 (2005); Zavadil. et al., EMBO J., 23:1155-1165 (2004)). Thirty measurements were taken for each experimental condition and distance coverage by cells moving into the scratch wound area was quantified. Three images were analyzed per condition, per time point, and averages and standard deviations were calculated."}
{"molecule": "B1", "values": [{"measurement": "keratinocyte migration", "result": "promoted"}]}
